Test results published in US20210162028A1, “Methods for Inducing Intermittent Fasting and Modulating Autophagy” (The Hong Kong Polytechnic University, priority 2019, published 2021).
“Also recorded” adds a separate entry of the source.

Columns and labels:
Type in all cases: in vivo, mouse
[1] = system: hepatocellular carcinoma; test: Frequency of hepatocellular carcinoma at autopsy
Excerpt: Development of neoplasm in the liver is one of the major characteristics of aging in C57BL/6J male mice with long-term feeding on a HFD, which may be related to the development of severe non-alcoholic fatty liver disease. Treatment with N-ABD094-rhArg [SEQ ID NO: 50] can effectively reverts hepatic steatosis and lower serum concentrations of liver damage biomakers ALT and AST (FIG. 7). Autopsy performed at the end of experiment confirmed the presence of hepatocellular carcinoma (FIG. 28A) in around 40% of C57BL/6J male mice that had been fed on a HFD for 46 weeks (12+34 weeks) starting from 5-week old [HFD (vehicle) group in FIG. 1] (FIG. 28B). The incidence rate even increased to 100% in mice fed on the HFD for 61 weeks (12+49 weeks) [HFD (vehicle) group in FIG. 3] (FIG. 28C). […] These findings support that rhArg has potent effects on prevention of liver cancer.

[2] = Rotarod test
[3] = Survival of very old mice; conditions: 25-month old C57BL/6J male mice on chow diet; weekly for 30 weeks; vehicle 20%
Excerpt: Specific autophagy upregulation in Caenorhabditis elegans and Drosophila extends lifespan, and drugs that induce autophagy, such as rapamycin, promote longevity in rodents (Hansen et al., Nature Reviews Molecular Cell Biology. 2018; 19:579-593). For C57BL/6J mice, over 24 months of age can be considered “very old” and survivorship drops off markedly (https://www.jax.org/news-and-insights/jax-blog/2017/november/when-are-mice-considered-old). To determine whether N-ABD094-rhArg (SEQ ID NO: 50), which induces systemic upregulation of autophagy, can increase longevity, very old C57BL/6J male mice at 25 months of age (equivalent to seventy in humans) fed an ordinary chow diet were separated into 2 groups. One group was treated once weekly with 600 U N-ABD094-rhArg (SEQ ID NO: 50) [CD Very Old (rhArg) group] for 30 weeks while another group was treated with vehicle [CD Very Old (vehicle) group]. A group of C57BL/6J male mice at 7 months of age (equivalent to early thirties in humans) treated with vehicle [CD Young (vehicle) group] served as the reference of progressive changes from mature adult to late middle age over the 30-week period.

[4] = Liver and kidney damage biomarkers (serum ALT/AST, urine albumin-to-creatinine); conditions: DIO C57BL/6J male mice on HFD; about 600 U once a week, 34 weeks
Excerpt: Other than WAT and BAT, obesity is associated with excessive accumulation of lipids in the liver (hepatic steatosis). Indeed, the liver of vehicle-treated DIO mice was markedly enlarged (FIG. 7A), with a mass about 3 times (4.68 g) that of the lean control (1.73 g) (FIG. 7B).
Other than liver, obesity is also commonly associated with lipid accumulation in the kidney (renal steatosis) and heart (cardiac steatosis), causing lipotoxicity and dysfunction of these organs. Indeed, there was an increase in kidney and heart mass in DIO mice treated with vehicle (FIG. 8A and FIG. 9A).

[5] = Fat pad and organ mass at end of treatment
[6] = DIO C57BL/6J male mice on HFD, 300 U rhArg once a week and/or 300 mg/kg metformin daily
[7] = DIO C57BL/6J male mice on HFD, 600 U once a week, 5 weeks (artificial IF experiment)

B1: N-ABD094-rhArg: recombinant human arginase fused to albumin binding domain ABD094 (SEQ ID NO: 50); engineered long-acting arginine-depleting enzyme (protein)
chain: MHHHHHHDEAVDANSLAEAKEAANAELDSYGVSDFYKRLIDKAKTVEGVEALKDAILAALPSGSNNNNNNGSGGMSAKSRTIGIIGAPFSKGQPRGGVEEGPTVLRKAGLLEKLKEQECDVKDYGDLPFADIPNDSPFQIVKNPRSVGKASEQLAGKVAEVKKNGRISLVLGGDHSLAIGSISGHARVHPDLGVIWVDAHTDINTPLTTTSGNLHGQPVSFLLKELKGKIPDVPGFSWVTPCISAKDIVYIGLRDVDPGEHYILKTLGIKYFSMTEVDRLGIGKVMEETLSYLLGRKKRPIHLSFDVDGLDPSFTPATGTPVVGGLTYREGLYITEEIYKTGLLSGLDIMEVNPSLGKTPEEVTRTVNTAVAITLACFGLAREGNHKPIDYLNPPK
modifications: N-ABD094-rhArg, Synthesized in the Lab
notes: engineered long-acting arginine-depleting enzyme
Development of hepatocellular carcinoma ([1]; DIO C57BL/6J male mice on HFD, weekly for 34 weeks, vehicle around 40%): none of the mice developed hepatocellular carcinoma
Development of hepatocellular carcinoma ([1]; DIO C57BL/6J male mice on HFD, weekly for 49 weeks, vehicle 100%): none of the mice developed hepatocellular carcinoma
Development of hepatocellular carcinoma ([1]; DIO ICR female mice on HFD, weekly for 56 weeks, vehicle over 30%): none of the mice in HFD (rhArg) group developed hepatocellular carcinoma; also recorded: effectively prevent the development of hepatocellular carcinoma
Rotarod test: latency to fall ([2]; DIO C57BL/6J male mice on HFD, weekly for 30 weeks): latency similar to mice in CD (vehicle) group
Rotarod test: performance ([2]; DIO ICR female mice on HFD, weekly, at 55 weeks): significantly better than mice in HFD (vehicle) group
Survival rate [3]: 80%
Ratio of albumin-to-creatinine in urine [4]: levels similar to the age-matched lean control mice
Serum concentrations of ALT and AST [4]: restored to levels comparable to the lean control mice
Fat pad mass of perirenal and inguinal WAT, interscapular BAT and liver mass ([5]; 17-month old C57BL/6J male mice on chow diet, once a week, 21 weeks): significant reduction in the fat pad mass
Mass of liver ([5]; 17-month old C57BL/6J male mice on chow diet, once a week, 21 weeks, versus CD Old (vehicle) and CD Young (vehicle)): the lowest amongst all 3 groups
Mass of organs including liver, kidney and BAT [5, 6]: cannot reduce the mass of most organs
Visceral and subcutaneous fat mass [5, 6]: did not reduce body fat
Fat pad mass of perirenal and inguinal WAT and interscapular BAT [5, 7]: marked reduction in the fat pad mass
Liver mass [5, 7]: prominently reduced to the same extent for both groups
Liver weight ([5]; DIO C57BL/6J male mice on HFD, 600 U once a week, 12 weeks): the weight was similar to the lean control
Fatty pancreas ([5]; DIO C57BL/6J male mice on HFD, half dose alone): can also reverse the fatty pancreas
Mass of organs including liver, pancreas and BAT ([5]; DIO C57BL/6J male mice on HFD, rhArg once a week alone or 0.33 mg RA daily alone): can already reduce the mass of most organs
Visceral and subcutaneous fat mass ([5]; DIO C57BL/6J male mice on HFD, rhArg once a week and/or 0.33 mg RA daily): did not reduce body fat
Fat pad mass (WAT, BAT) and liver, kidney and heart mass ([5]; DIO ICR female mice on HFD, once a week, 56 weeks): significantly less than that of HFD-fed mice treated with vehicle
